Data: US12460006B2, “Antibodies against integrin alpha 11 beta 1” (Momenta Pharmaceuticals, Inc., priority 2019, dated 2025)
Substitutions are numbered along the chain they refer to.

T1: I domain of α11β1 (Homo sapiens, UniProt Q9UKX5)
T1 construct: An in-house generated I domain of α11β1 was used; made in house
T1 sequence (Q9UKX5 164-345 limits assumed): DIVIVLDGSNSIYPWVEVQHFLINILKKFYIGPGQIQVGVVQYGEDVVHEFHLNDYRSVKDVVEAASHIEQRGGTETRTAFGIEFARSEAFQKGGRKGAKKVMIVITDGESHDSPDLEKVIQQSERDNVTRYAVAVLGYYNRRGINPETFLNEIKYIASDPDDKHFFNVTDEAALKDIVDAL

B1: 6-B21: mouse anti-α11β1 mAb; VH SEQ ID NO: 123, VL SEQ ID NO: 124 (antibody, V domains shown)
VH: EVQLQQSGPELVKPGASVKISCKASGYTFTDYYMNWVKQSHGKSLEWIGDINPHNGGTSFIQKFKGKATLTVDKSSSTAYMELRSLTSEDSAVYYCAPLGRKEGFAYWGQGTLVTVSA
VL: DTVLTQSPASLVVSLGQRATISCRASKSVSTSGYSYMHWYQQKPGQPPKLLIYLASNLESGVPARFSGSGSGTAFTLNIHPVEEEDAATYYCQHSRELPYTFGGGTKLEIK
B2: 6-O12: mouse anti-α11β1 mAb; VH SEQ ID NO: 117, VL SEQ ID NO: 118 (antibody, V domains shown)
VH: EVKLEESGGGLVQPGGSMKLSCAASGFTFSDAWMDWVRQSPEAGLEWVAEIRNKAHNPATYYAESVKGRFTISRDDSKSSVYLQMNSLRAEDTGIYYCTLVAPDAMDYWGQGTSVTVSS
VL: DIVMSLSPSSLAVSVGEKVTMSCKSSQSLLYSRNQKNYLAWYQQKPGQSPKLLIYWASTRASGVPDRFTGSGSGTDFTLTISSVKAEDLAVYYCQQYYSYPYTFGGGTKLEIK
B3: 6-M8: mouse anti-α11β1 mAb; VH SEQ ID NO: 129, VL SEQ ID NO: 130 (antibody, V domains shown)
VH: QVQLQQPGAELVMPGASVKLSCKASGYTFTNYWMHWVKQRPGQGLEWIGEIDPSDSYTNYNQKFKGKATLTVDKSSSTAYMQLSSLTSEDSAVYYCTRQGSTYAWGQGTSVTVSS
VL: DIVMTQAAFSNPVTLGTSASISCRSSKSLLHSNGITYLYWYLQKPGQSPQLLIYQMSNLASGVPDRFSSSGSGTDFTLRISRVEAEDVGVYYCAQNLELPPTFGGGTKLEIK
B4: 10-F23: mouse anti-α11β1 mAb; VH SEQ ID NO: 125, VL SEQ ID NO: 126 (antibody, V domains shown)
VH: QVTLKESGPGILQPSQTLSLTCSFSGFSLSTFAMGVGWIRQPSGKGLEWLAHIWWDDDKYYNPALKSRLTISKDTSKNHVFLKIANVDTADTATYYCARMPLTFYFDYWGQGTTLTVSS
VL: DVLLTQTPLSLPVSLGDQASISCRSSQSIVHSNGHTYLEWYLQKPGQSPKLLIYKVSNRFSGVPDRFSGSGSGTDFTLKISRVEAEDLGVYYCFQGSHVPFTFGGGTKLEIK
B5: 6-A12: mouse anti-α11β1 mAb; VH SEQ ID NO: 127, VL SEQ ID NO: 128 (antibody, V domains shown)
VH: B4 VH with S30R, H79Q
VL: B4 VL with L4M, H35N, N58T
B6: 9-B11: mouse anti-α11β1 mAb; VH SEQ ID NO: 115, VL SEQ ID NO: 116 (antibody, V domains shown)
VH: QVQLQQPGAELVRPGTSVKLSCKASGYTFTSYWMHWVQQRPGQGLEWIGVIDPSDSYTNYNQKFKGKATLTVDTSSSSAYMQLSSLTSEDSAVYYCARDDVAMDYWGQGTSVTVSS
VL: DIVVTQSPASLAVSLGQRATISCRASESVDSYGNSFIHWYQQKPGQPPKLLIYRASNLKSGIPARFSGSGSRTDFTLTINPVEADDVATYYCQQSNEDPYTFGGGTKLEIK
B7: 7-H14: mouse anti-α11β1 mAb; VH SEQ ID NO: 121, VL SEQ ID NO: 122 (antibody, V domains shown)
VH: QVQLQQPGAELVRPGASVKLSCKPSGYTFTSYWMNWVKQRPGQGLEWIGMIDPSDSETHYNQMFKDKATLTVDKSSNTAYMQLSSLTSEDSAVYYCAQIYYAYDKAYWGQGTLVTVSA
VL: DIVMSQSPSSLAVSVGEKVTMSCKSSQSLLYSSHQKNYLAWYQQKPGQSPKLLIYWASTRESGVPDRFTGSGSGTDFSLTISSVKAEDLAVYYCQEYYSWTFGGGTKLEIK
B8: 7D8B10: rat anti-α11β1 mAb; VH SEQ ID NO: 153, VL SEQ ID NO: 154 (antibody, V domains shown)
VH: MDLRLTYVFIVAILKGVLCEVKLEESGGGLVQPGMSVKLSCATSGFIFSDYWMEWVRQAPGKGLEWVAEIRNKANNYATYYGKSMKGRFTISRDDSKSIVYLQVNSIRSEDTAIYYCAPNFDYWGQGVMVTVSS
VL: MSPVQSLFLLLLWILGTHGDVVLTQTPPTLSATIGQSVSISCRSSQSLLHSTGNTYLNWLLQRPGQPPQLLIYLVSRLESGVPNRFSASGSGTDFTLKISGIEAEDLGVYYCVQSSHTPYTFGTGTKLELK

What follows are molecules tested against mouse α11β1 (Mus musculus, UniProt P61622) (assay: ELISA binding to recombinant mouse α11β1). Conditions: binding Yes/No.
mouse α11β1, sequence (P61622 23-1141 limits assumed): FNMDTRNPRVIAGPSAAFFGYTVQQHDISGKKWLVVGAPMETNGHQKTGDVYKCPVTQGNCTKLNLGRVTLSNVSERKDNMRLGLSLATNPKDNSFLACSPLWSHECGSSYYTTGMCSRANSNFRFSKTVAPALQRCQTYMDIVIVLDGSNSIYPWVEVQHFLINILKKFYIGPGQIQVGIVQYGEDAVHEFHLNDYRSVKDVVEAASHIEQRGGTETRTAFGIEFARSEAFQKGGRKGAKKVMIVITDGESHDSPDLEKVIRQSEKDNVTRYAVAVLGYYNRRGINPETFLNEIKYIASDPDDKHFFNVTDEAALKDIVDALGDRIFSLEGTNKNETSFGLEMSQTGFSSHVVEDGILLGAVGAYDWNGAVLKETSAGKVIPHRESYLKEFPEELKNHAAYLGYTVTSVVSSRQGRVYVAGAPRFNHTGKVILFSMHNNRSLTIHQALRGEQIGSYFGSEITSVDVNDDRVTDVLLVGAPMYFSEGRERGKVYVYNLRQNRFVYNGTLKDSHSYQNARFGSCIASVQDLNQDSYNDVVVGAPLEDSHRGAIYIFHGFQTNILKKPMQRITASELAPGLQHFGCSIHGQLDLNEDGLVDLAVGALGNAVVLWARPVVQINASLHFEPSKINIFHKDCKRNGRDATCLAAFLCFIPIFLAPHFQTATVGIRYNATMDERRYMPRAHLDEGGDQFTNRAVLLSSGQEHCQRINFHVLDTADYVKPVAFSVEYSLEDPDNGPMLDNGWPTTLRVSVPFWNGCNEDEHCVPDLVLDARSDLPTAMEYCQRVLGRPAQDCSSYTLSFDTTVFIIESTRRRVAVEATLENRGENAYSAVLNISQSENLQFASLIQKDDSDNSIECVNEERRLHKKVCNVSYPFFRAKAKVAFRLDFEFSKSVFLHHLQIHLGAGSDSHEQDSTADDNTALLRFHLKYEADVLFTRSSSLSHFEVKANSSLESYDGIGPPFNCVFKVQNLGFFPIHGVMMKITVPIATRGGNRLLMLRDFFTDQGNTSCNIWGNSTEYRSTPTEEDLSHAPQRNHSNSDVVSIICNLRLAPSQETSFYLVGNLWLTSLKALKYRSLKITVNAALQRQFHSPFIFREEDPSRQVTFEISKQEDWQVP
mouse α11β1, sequence (P09055 21-728 partner limits assumed): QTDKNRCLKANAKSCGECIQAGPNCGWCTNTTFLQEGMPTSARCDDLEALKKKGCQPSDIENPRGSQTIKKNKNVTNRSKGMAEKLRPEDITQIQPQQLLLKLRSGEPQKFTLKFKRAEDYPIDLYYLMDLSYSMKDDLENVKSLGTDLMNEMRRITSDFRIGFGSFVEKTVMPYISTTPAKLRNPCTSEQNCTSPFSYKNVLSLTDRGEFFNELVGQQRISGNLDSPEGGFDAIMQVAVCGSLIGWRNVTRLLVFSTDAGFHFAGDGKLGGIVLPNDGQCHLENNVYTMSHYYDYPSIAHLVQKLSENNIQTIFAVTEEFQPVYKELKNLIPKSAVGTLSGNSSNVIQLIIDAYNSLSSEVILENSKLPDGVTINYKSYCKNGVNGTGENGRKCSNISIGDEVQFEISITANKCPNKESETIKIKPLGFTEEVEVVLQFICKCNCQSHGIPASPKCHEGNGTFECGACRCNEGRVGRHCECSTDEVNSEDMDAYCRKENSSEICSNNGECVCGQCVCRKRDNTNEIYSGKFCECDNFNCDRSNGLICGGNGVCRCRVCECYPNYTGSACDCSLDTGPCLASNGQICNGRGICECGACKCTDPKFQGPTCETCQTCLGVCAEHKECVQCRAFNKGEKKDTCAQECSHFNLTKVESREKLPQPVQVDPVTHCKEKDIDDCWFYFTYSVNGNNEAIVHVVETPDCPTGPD
Protocol: (§1) 0.25 μg/mL of target antigen (recombinant human or mouse α11β1) was plated in a 96-well plate over night at 4° C. Plates were washed (PBS with 0.1% Tween-20), blocked (PBS with 2% BSA and 0.05% Tween-20) for 1 hour at room temperature and incubated with a range of antibody concentrations for 1 hour at room temperature. Subsequently, plates were washed and incubated with biotinylated anti-rabbit/mouse/human IgG in a 1:1000 dilution buffer and incubated for 1 hour at room temperature. After washing the plates, Streptavidin HRP was added at 1:200 in dilution buffer and incubated for 1 hour at room temperature. Ultra TMB ELISA substrate solution was added and the plates incubated for 5 minutes on a plate shaker. The reaction was stopped by adding stop solution to each well and plates were read at 450 nm.

Row | Molecule | Murine α11β1 ELISA
1 | B1 | Yes/Low
2 | B2 | No
3 | B3 | No
4 | B4 | Yes/Low
5 | B5 | Yes/Low
6 | B6 | No
7 | B7 | Yes/Low
8 | B8 | No

These molecules were tested on α1β1, α2β1 and/or α10β1 (assay: Counter-screen for cross-reactivity to other collagen receptors). Conditions: cross-reactivity to α1β1, α2β1, α10β1.
Type: binding, human
Protocol: Wistar rats were immunized with recombinant human α11β1 protein. An enzyme-linked immunosorbent assay (ELISA) was used to test an immune response against target human and mouse proteins. Subsequently, cell fusion (by electro fusion) was performed with animals that produced a good immune response. All fused cells were plated in a 96-well plate and supernatants were screened by ELISA against soluble human and mouse α11β1. Positive clones were counter-screened against human α1β1, α2β1 and α10β1. […] Purified antibodies were then generated from the selected clones and heavy chain and light chain variable domain sequences were obtained from each purified antibody.
10 mice from 5 different strains were immunized with an appropriate mixture of human α11β1, mouse α11β1 and tolerance breaking protein. Plasma titers were evaluated by ELISA against a mixture of human and mouse α11β1. Popliteal, inguinal, and iliac lymph nodes were collected. ELISA-positive anti-human/mouse α11β1 hybridomas were expanded and subjected to a secondary screen against human and mouse α11β1, control HIS protein, and a counter-screen was performed against human […], α2β1 and α10β1. Supernatant IgG concentration was sufficient for functional screening. Selected hybridomas satisfying all the criteria were cloned and clonal hybridomas were confirmed by ELISA against human and mouse α11β1 and subsequently scaled-up and IgGs were purified. Heavy and light chain variable regions of selected hybridomas were then sequenced.
α11β1 belongs to a family of collagen receptors and has a relatively high homology to them. Therefore, the novel antibodies of this invention were counter-screened against α1β1, α2β1 and/or α10β1. Table 2 includes results of cross-reactivity to the other receptors.

Row | Molecule | Off Target
9 | B1 | No
10 | B2 | No
11 | B3 | No
12 | B4 | No
13 | B5 | No
14 | B6 | No
15 | B7 | No
16 | B8 | No

Each molecule was assayed against T1, I domain of α11β1 (assay: ELISA binding to in-house generated I domain of α11β1). Conditions: Yes/No.
Protocol: as §1
22 Data was also collected to determine whether antibodies of interest bind to the I domain of α11β1. An in-house generated I domain of α11β1 was used. […] Mouse antibodies 10-F23, 10-L15, 7-O8, 6-A12, 9-G05 and 9-E16 and rabbit antibodies 7-H12 and 2-D3 were also tested for binding against the in-house generated α11031 domain. FIGS. 3A and 3B show graphs illustrating binding data from exemplary mAbs.

Row | Molecule | I Domain binding
17 | B1 | No
18 | B2 | No
19 | B3 | No
20 | B4 | Yes
21 | B5 | Yes
22 | B6 | Yes
23 | B7 | No
24 | B8 | No

These molecules were tested on human pulmonary fibroblasts (HPFs) (assay: FACS antibody binding to human pulmonary fibroblasts). Conditions: binding Yes/No.
Protocol: (§2) Human Pulmonary Fibroblasts (ScienCell) were cultured in complete Fibroblast Growth Medium (ScienCell) until 80% confluent in T-150 flasks. Cells were washed and harvested using Accutase. Cells were seeded into T-150 flasks at 7,500 cells/cm^2 in complete FGF and cultured for 72 hours. Cells were then washed and starved in serum reduced medium for 24 hours. After starvation, cells were treated with TGFβ-1 (R&D Systems) for 72 hours. Cells were harvested using Accutase and seeded in 96-well conical bottom plates. Cells were blocked with Heat Inactived Fetal Bovine Serum (Gibco) for 30 minutes at 4° C. Cells were then incubated with anti-α11 antibodies at the doses described in each figure for 30 minutes at 4° C. A human anti-α11 antibody (Creative BioLabs) was included as a positive control as well as the appropriate IgG isotype negative controls. Cells were washed twice and incubated with PE conjugated secondary antibodies specific to the IgG class of the anti-α11 antibodies being tested for 30 minutes at 4° C. Cells were washed twice and fixed in 1% PFA for 30 minutes. Cells were acquired on a FACS Verse […]. Data were analyzed by gating on single cells and determining the geometric Mean Fluorescence Intensity (gMFI) in the PE channel for each sample.
(§3) Binding to a physiologically relevant primary human cell type was also tested. Human pulmonary fibroblasts (HPF) and TGFβ treatment were used to induce a fibroblast-to-myofibroblast transition (FMT), giving rise to myofibroblasts (MF). […] Additionally, HPFs express α11 and α2β1, other collagen binding receptors, which means that HPFs can be to test cross-reactivity of antibodies of interest.

Row | Molecule | HPF FACS
25 | B1 | No
26 | B2 | No
27 | B3 | No
28 | B4 | No
29 | B5 | No
30 | B6 | No
31 | B7 | No
32 | B8 | No

What follows are molecules tested on myofibroblasts (MF) (assay: FACS antibody binding to myofibroblasts). Conditions: binding Yes/No.
Parameters: species or system human
Protocol: as §2, §3

Row | Molecule | MF FACS
33 | B1 | No
34 | B2 | No
35 | B3 | No
36 | B4 | Yes
37 | B5 | Yes
38 | B6 | Yes
39 | B7 | Yes
40 | B8 | Yes
